Series [1] concerns the target SmMTAP N87T mutant (Schistosoma mansoni). Kind of series: crystal structure.
In the next series the target is T1, SmMTAP (Schistosoma mansoni, UniProt I0B503).
T1 construct: trimer; adult worm cDNA, corrected 3' end versus gene model Smp_028190
T1 sequence (I0B503 1-299): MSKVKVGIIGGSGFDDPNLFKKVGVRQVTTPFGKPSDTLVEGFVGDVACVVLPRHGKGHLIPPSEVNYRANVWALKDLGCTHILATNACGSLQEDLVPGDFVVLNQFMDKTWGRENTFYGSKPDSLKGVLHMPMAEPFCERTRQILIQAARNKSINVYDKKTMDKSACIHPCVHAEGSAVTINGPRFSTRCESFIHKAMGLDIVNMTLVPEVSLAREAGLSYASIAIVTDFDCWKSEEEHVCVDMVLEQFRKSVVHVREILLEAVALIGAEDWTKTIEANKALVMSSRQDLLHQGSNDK
Kind of series: X-ray crystal structure. In kind it is binding.

Series [2] deals with Schistosoma mansoni 5'-deoxy-5'-methylthioadenosine phosphorylase, wild type (Schistosoma mansoni). Kind of series: crystal structure; hanging drop at 18°C, 100 mM Bis-tris or MES pH 6.1-6.7, 14-18% PEG 3350, protein 6 mg/mL; apo or with adenine, MTA, tubercidin, sulphate; one or two trimers in the asymmetric unit.
For series [3], the target named is SmMTAP S12T mutant (Schistosoma mansoni). Kind of series: crystal structure.
Series [4] has as its target SmMTAP Q289L mutant (Schistosoma mansoni). Kind of series: crystal structure.
For series [5], the target named is SmMTAP S12T/N87T double mutant (Schistosoma mansoni). Kind of series: crystal structure.
Substrate in the series “purified protein”: O=P(O)(O)O
Kind of series: purified protein. Conditions: 100 mM Hepes pH 7.4, room temperature, nucleoside co-substrate not stated.

Substrate in series [6]: Nc1ncnc2c1ncn2[C@@H]1O[C@H](CO)[C@@H](O)[C@H]1O
Kind of series: xanthine oxidase coupled assay, A305. In kind it is biochemical, Schistosoma mansoni. Particulars: 100 mM potassium phosphate pH 7.4, room temperature. An excerpt: (§1) xanthine oxidase coupled assay, A305 on SmMTAP

Substrate in series [7]: CSC[C@H]1O[C@@H](n2cnc3c(N)ncnc32)[C@H](O)[C@@H]1O
Kind of series: xanthine oxidase coupled assay, A305. In kind it is biochemical, Schistosoma mansoni. Particulars: 100 mM potassium phosphate pH 7.4, room temperature.
Source text: as §1

Substrate in series [8]: Nc1ncnc2c1ncn2[C@H]1C[C@H](O)[C@@H](CO)O1
Kind of series: xanthine oxidase coupled assay, A305. In kind it is biochemical, Schistosoma mansoni. Particulars: 100 mM potassium phosphate pH 7.4, room temperature.
Source text: as §1

These results are taken from paper PMC5147791 (PLoS Neglected Tropical Diseases, 2016).

On to SmMTAP N87T mutant (enzyme), for which the stoichiometry N (commonly the number of molecules, sites or subunits per partner or assembly) in [1] is 3.

On to `Nc1ncnc2c1ccn2[C@@H]1O[C@H](CO)[C@@H](O)[C@H]1O` [tubercidin], for which the X-ray crystal structure result at SmMTAP (active site, crystals grown with 5 mM ligand) is recorded as “In the MTAP tubercidin complex, all of the active sites are occupied”.

Consider “Schistosoma mansoni 5'-deoxy-5'-methylthioadenosine phosphorylase, wild type (enzyme)”, for which the stoichiometry N in series [2] came out at 3.

On to SmMTAP S12T mutant (enzyme), for which the stoichiometry N in series [3] worked out at 3.

For `Nc1ncnc2[nH]cnc12` [adenine], the X-ray crystal structure entry on SmMTAP (base binding site, grown at pH 6.1-6.7, PEG 3350) is “the only WT structure whose BBS are all occupied is the orthorhombic SmMTAP adenine complex”.

For SmMTAP Q289L mutant (enzyme), the stoichiometry N in series [4] was found to be 3.

On to SmMTAP S12T/N87T double mutant (enzyme), for which the stoichiometry N in [5] worked out at 3.

B1: SmMTAP (Schistosoma mansoni) (protein)
chain: MSKVKVGIIGGSGFDDPNLFKKVGVRQVTTPFGKPSDTLVEGFVGDVACVVLPRHGKGHLIPPSEVNYRANVWALKDLGCTHILATNACGSLQEDLVPGDFVVLNQFMDKTWGRENTFYGSKPDSLKGVLHMPMAEPFCERTRQILIQAARNKSINVYDKKTMDKSACIHPCVHAEGSAVTINGPRFSTRCESFIHKAMGLDIVNMTLVPEVSLAREAGLSYASIAIVTDFDCWKSEEEHVCVDMVLEQFRKSVVHVREILLEAVALIGAEDWTKTIEANKALVMSSRQDLLHQGSNDK
notes: trimer; adult worm cDNA, corrected 3' end versus gene model Smp_028190
As for B1, in “purified protein”, the Km (as a rule, the substrate concentration at which the rate is half of its maximum) is 65.58 ± 4.69 µM; the Vmax (commonly the top rate of the reaction or transport when substrate is in excess) amounted to 0.0358 µM/min; the kcat – broadly, the number of substrate molecules converted per active site and unit of time at saturation – was 478 s⁻¹; the kcat/Km (as a rule, the turnover number divided by the Michaelis constant) amounted to 7.28e+06 M⁻¹ s⁻¹. Moreover, in series [6], the Km is 3.14 ± 0.16 µM, the Vmax was 0.0501 µM/min, the kcat turned out to be 334 ± 6.84 s⁻¹ and the kcat/Km was found to be 1.06e+08 ± 5.84e+06 M⁻¹ s⁻¹. In addition, in series [7], the Michaelis constant (Km) was determined as 3.63 ± 0.14 µM, the Vmax was found to be 0.0666 µM/min, the kcat amounted to 444 ± 5.72 s⁻¹ and the kcat/Km worked out at 1.22e+08 ± 4.97e+06 M⁻¹ s⁻¹. Besides, in series [8], the Km came to 3.97 ± 0.41 µM, the Vmax is 0.0841 µM/min, the kcat came to 224 ± 11.3 s⁻¹ and the kcat/Km was 5.65e+07 ± 6.49e+06 M⁻¹ s⁻¹.
